According to patent US20260274980A1 (BIOARCTIC, published 2026):
Blank lines part the entries; values can stand above or below the binder they belong to.

Target: T1, human transferrin receptor 1 (hTfR1) on cell surfaces (human, UniProt P02786 1-760)
T1 construct: Endogenous receptor on hCMEC/D3, THP-1, K562 and Ramos cells; also called CD71; endogenous hTfR1
Assay: flow cytometry on Ramos cells (hTfR1 on the surface), Fc receptors blocked, overnight at 4 °C, detection with anti-human IgG-Alexa Fluor 488
Experimental: Binding to hTfR1 on cells was measured on the immortalized human B lymphocyte cell line Ramos (Sigma, cat: 85030802). This cell line is known for expressing high levels of hTfR1 on the cell surface. Fcγ receptors were blocked using Fc receptor blocker (Innovex biosciences, #NB309-4X-40) for 30 min at 4° C., after which the cells were washed in PBS. The cells were seeded in a 96 well V bottom plate (#249570, Thermo Scientific Nunc), and serially diluted Gen 2A constructs were added and the plate was incubated at 4° C. overnight. The cells were washed with PBS with 1% BSA and then fixed with freshly prepared 4% formaldehyde (Thermo Scientific Pierce, #28906) diluted in PBS for 15 min at room temperature. The cells were washed with PBS containing 1% BSA, and then stained. […] Staining was carried out for 30 min at 4° C. After incubation with the detection reagent, cells were washed with PBS containing 1% BSA. The cells were finally resuspended in 200 μl PBS with 1% BSA and acquired using a BD FACSLyric flow cytometer system (BD Biosciences). Samples were analyzed using flowJo software (BD Biosciences).

T1 sequence (P02786 whole entry): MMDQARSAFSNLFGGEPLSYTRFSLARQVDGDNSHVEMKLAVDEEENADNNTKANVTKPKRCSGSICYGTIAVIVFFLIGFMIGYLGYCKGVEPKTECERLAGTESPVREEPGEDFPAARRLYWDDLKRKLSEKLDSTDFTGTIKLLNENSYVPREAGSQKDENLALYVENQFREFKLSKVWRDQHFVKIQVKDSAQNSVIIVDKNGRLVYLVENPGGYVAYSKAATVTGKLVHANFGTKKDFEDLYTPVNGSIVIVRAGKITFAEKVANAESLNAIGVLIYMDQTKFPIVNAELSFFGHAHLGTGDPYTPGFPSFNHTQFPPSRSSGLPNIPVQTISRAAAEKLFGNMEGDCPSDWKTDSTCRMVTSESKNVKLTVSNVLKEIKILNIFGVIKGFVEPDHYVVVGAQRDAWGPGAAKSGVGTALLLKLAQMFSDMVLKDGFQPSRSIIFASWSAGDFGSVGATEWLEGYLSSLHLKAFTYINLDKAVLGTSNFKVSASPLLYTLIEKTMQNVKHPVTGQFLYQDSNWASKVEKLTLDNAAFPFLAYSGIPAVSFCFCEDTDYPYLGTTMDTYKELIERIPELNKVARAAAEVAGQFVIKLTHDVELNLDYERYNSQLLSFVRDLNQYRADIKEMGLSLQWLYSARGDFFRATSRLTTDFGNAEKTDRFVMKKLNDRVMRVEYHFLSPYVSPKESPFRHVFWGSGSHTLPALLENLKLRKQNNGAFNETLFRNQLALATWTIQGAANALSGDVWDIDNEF

binding result: binds
B1: 2A-3 #7 (bispecific antibody, human IgG1, kappa)
heavy: not shown
chain: DIVMTQAPLSLPVSLGDQASISCRSSQSIVHSNGNTYLEWYLQKPGQSPKLLIYKVSNRFSGVPDRFSGSGSGTDFTLKISRVEAEDLGIYYCFQGSHVPPTFGGGTKLEIKRTVAAPSVFIFPPSDEQLKSGTASVVCLLNNFYPREAKVQWKVDNALQSGNSQESVTEQDSKDSTYSLSSTLTLSKADYEKHKVYACEVTHQGLSSPVTKSFNRGECGGGGSGGGGSGGGGSGGGGSGGGGSEVQLVQSGAEVKKPGSSVKVSCKASGYIFTDYNMDWVRQAPGQGLEWIGDINPDADTTSYNEKFKGRATLTVDKSTSTAYMELSSLRSEDTAVYYCARGGYSGSSYYHPMDYWGQGTLVTVSSGGGGSGGGGSGGGGSDIQMTQSPSSVSASVGDRVTITCKSSQSLLYSTNQKNYLAWYQQKPGKAPKLLIYWASTRESGVPSRFSGSGSGTDFTLTISSLQPEDFATYYCQQYFIYPRTFGQGTKVEIKGGGGSGGGGSGGGGSGGGGSGGGGSDIVMTQAPLSLPVSLGDQASISCRSSQSIVHSNGNTYLEWYLQKPGQSPKLLIYKVSNRFSGVPDRFSGSGSGTDFTLKISRVEAEDLGIYYCFQGSHVPPTFGGGTKLEIKRTVAAPSVFIFPPSDEQLKSGTASVVCLLNNFYPREAKVQWKVDNALQSGNSQESVTEQDSKDSTYSLSSTLTLSKADYEKHKVYACEVTHQGLSSPVTKSFNRGEC
notes: also called Gen 2A construct #7; VH first

binding result: binds
B2: 2A-3 #13 (bispecific antibody, human IgG1, kappa)
heavy: not shown
chain: DIVMTQAPLSLPVSLGDQASISCRSSQSIVHSNGNTYLEWYLQKPGQSPKLLIYKVSNRFSGVPDRFSGSGSGTDFTLKISRVEAEDLGIYYCFQGSHVPPTFGGGTKLEIKRTVAAPSVFIFPPSDEQLKSGTASVVCLLNNFYPREAKVQWKVDNALQSGNSQESVTEQDSKDSTYSLSSTLTLSKADYEKHKVYACEVTHQGLSSPVTKSFNRGECGGGGSGGGGSGGGGSDIQMTQSPSSVSASVGDRVTITCKSSQSLLYSTNQKNYLAWYQQKPGKAPKLLIYWASTRESGVPSRFSGSGSGTDFTLTISSLQPEDFATYYCQQYFIYPRTFGQGTKVEIKGGGGSGGGGSGGGGSEVQLVQSGAEVKKPGSSVKVSCKASGYIFTDYNMDWVRQAPGQGLEWIGDINPDADTTSYNEKFKGRATLTVDKSTSTAYMELSSLRSEDTAVYYCARGGYSGSSYYHPMDYWGQGTLVTVSSGGGGSGGGGSGGGGSGGGGSGGGGSDIVMTQAPLSLPVSLGDQASISCRSSQSIVHSNGNTYLEWYLQKPGQSPKLLIYKVSNRFSGVPDRFSGSGSGTDFTLKISRVEAEDLGIYYCFQGSHVPPTFGGGTKLEIKRTVAAPSVFIFPPSDEQLKSGTASVVCLLNNFYPREAKVQWKVDNALQSGNSQESVTEQDSKDSTYSLSSTLTLSKADYEKHKVYACEVTHQGLSSPVTKSFNRGEC
notes: also called Gen 2A construct #13; VL first

binding result: binds
B3: 2A-3 #12 (bispecific antibody, human IgG1, kappa)
heavy: not shown
chain: DIVMTQAPLSLPVSLGDQASISCRSSQSIVHSNGNTYLEWYLQKPGQSPKLLIYKVSNRFSGVPDRFSGSGSGTDFTLKISRVEAEDLGIYYCFQGSHVPPTFGGGTKLEIKRTVAAPSVFIFPPSDEQLKSGTASVVCLLNNFYPREAKVQWKVDNALQSGNSQESVTEQDSKDSTYSLSSTLTLSKADYEKHKVYACEVTHQGLSSPVTKSFNRGECGGGGSGGGGSDIQMTQSPSSVSASVGDRVTITCKSSQSLLYSTNQKNYLAWYQQKPGKAPKLLIYWASTRESGVPSRFSGSGSGTDFTLTISSLQPEDFATYYCQQYFIYPRTFGQGTKVEIKGGGGSGGGGSGGGGSEVQLVQSGAEVKKPGSSVKVSCKASGYIFTDYNMDWVRQAPGQGLEWIGDINPDADTTSYNEKFKGRATLTVDKSTSTAYMELSSLRSEDTAVYYCARGGYSGSSYYHPMDYWGQGTLVTVSSGGGGSGGGGSGGGGSGGGGSGGGGSDIVMTQAPLSLPVSLGDQASISCRSSQSIVHSNGNTYLEWYLQKPGQSPKLLIYKVSNRFSGVPDRFSGSGSGTDFTLKISRVEAEDLGIYYCFQGSHVPPTFGGGTKLEIKRTVAAPSVFIFPPSDEQLKSGTASVVCLLNNFYPREAKVQWKVDNALQSGNSQESVTEQDSKDSTYSLSSTLTLSKADYEKHKVYACEVTHQGLSSPVTKSFNRGEC
notes: also called Gen 2A construct #12; VL first

binding result: binds
B4: 2A-3 #10 (bispecific antibody, human IgG1, kappa)
heavy: not shown
chain: DIVMTQAPLSLPVSLGDQASISCRSSQSIVHSNGNTYLEWYLQKPGQSPKLLIYKVSNRFSGVPDRFSGSGSGTDFTLKISRVEAEDLGIYYCFQGSHVPPTFGGGTKLEIKRTVAAPSVFIFPPSDEQLKSGTASVVCLLNNFYPREAKVQWKVDNALQSGNSQESVTEQDSKDSTYSLSSTLTLSKADYEKHKVYACEVTHQGLSSPVTKSFNRGECGGGGSGGGGSGGGGSDIQMTQSPSSVSASVGDRVTITCKSSQSLLYSTNQKNYLAWYQQKPGKAPKLLIYWASTRESGVPSRFSGSGSGTDFTLTISSLQPEDFATYYCQQYFIYPRTFGQGTKVEIKGGGGSGGGGSGGGGSEVQLVQSGAEVKKPGSSVKVSCKASGYIFTDYNMDWVRQAPGQGLEWIGDINPDADTTSYNEKFKGRATLTVDKSTSTAYMELSSLRSEDTAVYYCARGGYSGSSYYHPMDYWGQGTLVTVSSGGGGSGGGGSGGGGSGGGGSDIVMTQAPLSLPVSLGDQASISCRSSQSIVHSNGNTYLEWYLQKPGQSPKLLIYKVSNRFSGVPDRFSGSGSGTDFTLKISRVEAEDLGIYYCFQGSHVPPTFGGGTKLEIKRTVAAPSVFIFPPSDEQLKSGTASVVCLLNNFYPREAKVQWKVDNALQSGNSQESVTEQDSKDSTYSLSSTLTLSKADYEKHKVYACEVTHQGLSSPVTKSFNRGEC
notes: also called Gen 2A construct #10; VL first

binding result: binds
B5: 2A-3 #14 (bispecific antibody, human IgG1, kappa)
heavy: not shown
chain: DIVMTQAPLSLPVSLGDQASISCRSSQSIVHSNGNTYLEWYLQKPGQSPKLLIYKVSNRFSGVPDRFSGSGSGTDFTLKISRVEAEDLGIYYCFQGSHVPPTFGGGTKLEIKRTVAAPSVFIFPPSDEQLKSGTASVVCLLNNFYPREAKVQWKVDNALQSGNSQESVTEQDSKDSTYSLSSTLTLSKADYEKHKVYACEVTHQGLSSPVTKSFNRGECGGGGSGGGGSGGGGSGGGGSGGGGSDIQMTQSPSSVSASVGDRVTITCKSSQSLLYSTNQKNYLAWYQQKPGKAPKLLIYWASTRESGVPSRFSGSGSGTDFTLTISSLQPEDFATYYCQQYFIYPRTFGQGTKVEIKGGGGSGGGGSGGGGSEVQLVQSGAEVKKPGSSVKVSCKASGYIFTDYNMDWVRQAPGQGLEWIGDINPDADTTSYNEKFKGRATLTVDKSTSTAYMELSSLRSEDTAVYYCARGGYSGSSYYHPMDYWGQGTLVTVSSGGGGSGGGGSGGGGSGGGGSGGGGSDIVMTQAPLSLPVSLGDQASISCRSSQSIVHSNGNTYLEWYLQKPGQSPKLLIYKVSNRFSGVPDRFSGSGSGTDFTLKISRVEAEDLGIYYCFQGSHVPPTFGGGTKLEIKRTVAAPSVFIFPPSDEQLKSGTASVVCLLNNFYPREAKVQWKVDNALQSGNSQESVTEQDSKDSTYSLSSTLTLSKADYEKHKVYACEVTHQGLSSPVTKSFNRGEC
notes: also called Gen 2A construct #14; VL first

binding result: binds
B6: 2A-3 #9 (bispecific antibody, human IgG1, kappa)
heavy: not shown
chain: DIVMTQAPLSLPVSLGDQASISCRSSQSIVHSNGNTYLEWYLQKPGQSPKLLIYKVSNRFSGVPDRFSGSGSGTDFTLKISRVEAEDLGIYYCFQGSHVPPTFGGGTKLEIKRTVAAPSVFIFPPSDEQLKSGTASVVCLLNNFYPREAKVQWKVDNALQSGNSQESVTEQDSKDSTYSLSSTLTLSKADYEKHKVYACEVTHQGLSSPVTKSFNRGECGGGGSGGGGSDIQMTQSPSSVSASVGDRVTITCKSSQSLLYSTNQKNYLAWYQQKPGKAPKLLIYWASTRESGVPSRFSGSGSGTDFTLTISSLQPEDFATYYCQQYFIYPRTFGQGTKVEIKGGGGSGGGGSGGGGSEVQLVQSGAEVKKPGSSVKVSCKASGYIFTDYNMDWVRQAPGQGLEWIGDINPDADTTSYNEKFKGRATLTVDKSTSTAYMELSSLRSEDTAVYYCARGGYSGSSYYHPMDYWGQGTLVTVSSGGGGSGGGGSGGGGSGGGGSDIVMTQAPLSLPVSLGDQASISCRSSQSIVHSNGNTYLEWYLQKPGQSPKLLIYKVSNRFSGVPDRFSGSGSGTDFTLKISRVEAEDLGIYYCFQGSHVPPTFGGGTKLEIKRTVAAPSVFIFPPSDEQLKSGTASVVCLLNNFYPREAKVQWKVDNALQSGNSQESVTEQDSKDSTYSLSSTLTLSKADYEKHKVYACEVTHQGLSSPVTKSFNRGEC
notes: also called Gen 2A construct #9; VL first

binding result: binds
B7: 2A-3 #11 (bispecific antibody, human IgG1, kappa)
heavy: not shown
chain: DIVMTQAPLSLPVSLGDQASISCRSSQSIVHSNGNTYLEWYLQKPGQSPKLLIYKVSNRFSGVPDRFSGSGSGTDFTLKISRVEAEDLGIYYCFQGSHVPPTFGGGTKLEIKRTVAAPSVFIFPPSDEQLKSGTASVVCLLNNFYPREAKVQWKVDNALQSGNSQESVTEQDSKDSTYSLSSTLTLSKADYEKHKVYACEVTHQGLSSPVTKSFNRGECGGGGSDIQMTQSPSSVSASVGDRVTITCKSSQSLLYSTNQKNYLAWYQQKPGKAPKLLIYWASTRESGVPSRFSGSGSGTDFTLTISSLQPEDFATYYCQQYFIYPRTFGQGTKVEIKGGGGSGGGGSGGGGSEVQLVQSGAEVKKPGSSVKVSCKASGYIFTDYNMDWVRQAPGQGLEWIGDINPDADTTSYNEKFKGRATLTVDKSTSTAYMELSSLRSEDTAVYYCARGGYSGSSYYHPMDYWGQGTLVTVSSGGGGSGGGGSGGGGSGGGGSGGGGSDIVMTQAPLSLPVSLGDQASISCRSSQSIVHSNGNTYLEWYLQKPGQSPKLLIYKVSNRFSGVPDRFSGSGSGTDFTLKISRVEAEDLGIYYCFQGSHVPPTFGGGTKLEIKRTVAAPSVFIFPPSDEQLKSGTASVVCLLNNFYPREAKVQWKVDNALQSGNSQESVTEQDSKDSTYSLSSTLTLSKADYEKHKVYACEVTHQGLSSPVTKSFNRGEC
notes: also called Gen 2A construct #11; VL first
